Consider 1 protein from paper PMC7022630 (Biomolecules, 2020).

What is called stoichiometry N is a count of units in the complex or per binding partner.

The data set concerns the molecule itself. The data set can be described thus: SEC-MALS; Superdex 200 10/300 GL; 20 mM Tris-HCl pH 7.5, 150 mM sodium chloride, 0.5 mM TCEP; 100 μL of monomer and dimer fractions of NDRG3 ΔNC at 2.0 mg/mL injected separately, 0.4 mL/min. (SEC sorts molecules by how far they enter the pores of the column.)

B1: truncated human NDRG3 (residues 29–320, NDRG3 ΔNC) (domain or fragment)
chain: not shown
notes: N-Myc downstream-regulated gene 3 protein (NDRG3), human, 375 amino acids, residues 29-320; Elutes as monomer and dimer fractions; mainly monomer; No removal of the His tag is described; also called NDRG3 ΔNC WT; NDRG3 ΔNC wild type; source: E. coli BLR(DE3), purified (Ni-chelating, Q HP, Superdex 200); for the analytical SEC loaded after the Ni-chelating column
Consider B1, for which the “stoichiometry N” value amounted to 2.
